Laboratory results reported in article PMC3050068.
Each block holds one substance with its values, some of them ahead of it.

Experiments:
[1] = target: WlbA from Chromobacterium violaceum (Chromobacterium violaceum); assay: AUC
[2] = target: WlbA from Chromobacterium violaceum (Chromobacterium violaceum); assay: crystal structure
[3] = tested on: O=C(O)[C@H]1O[C@H](OP(=O)(O)OP(=O)(O)OC[C@H]2O[C@@H](n3ccc(=O)[nH]c3=O)[C@H](O)[C@@H]2O)[C@H](O)[C@@H](O)[C@@H]1O; assay: purified protein; details: NAD+ as co-substrate, pH 8.5, 25°C, without WlbC
[4] = tested on: O=C(O)[C@H]1O[C@H](OP(=O)(O)OP(=O)(O)OC[C@H]2O[C@@H](n3ccc(=O)[nH]c3=O)[C@H](O)[C@@H]2O)[C@H](O)[C@@H](O)[C@@H]1O; assay: purified protein; type: biochemical, Chromobacterium violaceum; details: NAD+ as co-substrate, pH 8.5 (50 mM HEPPS), 25°C, without WlbC

stoichiometry N [1]: 8 | stoichiometry N [2]: 8
Substance: WlbA from Chromobacterium violaceum (enzyme)

Substance: B. pertussis WlbA (Bordetella pertussis Tohama I)
Km [3]: 2050 ± 210 µM | kcat [3]: 0.0021 ± 0.0001 s⁻¹ | kcat/Km [3]: 1 M⁻¹ s⁻¹

Substance: C. violaceum WlbA (Chromobacterium violaceum ATCC 12472)
Km [4]: 200 ± 20 µM | kcat [4]: 0.00015 ± 0.00001 s⁻¹ | kcat/Km [4]: 0.75 M⁻¹ s⁻¹
